Test [1] addresses protein C.
The target of test [2] is thrombin.
Test [3] has as its target protein C. This is another data set of the same source.
The target in test [4] is thrombin. The source holds these as a separate data set.

B1: polypeptide E45 (receptor)
chain: DPCFRANCEYQCQPLNQTSYLCVCAEGFAPIPHEPHRCQMFCNQTACPADCDPNTQASCECPEGYILDDGFICTDI
As for B1, the production of activated protein C in test [1] and in test [2] was 1.7 pmol throughout.

B2: polypeptide E456GlaAsp (receptor)
chain: PVEDPCFRANCEYQCQPLNQTSYLCVCAEGFAPIPHEPHRCQMFCNQTACPADCDPNTQASCECPEGYILDDGFICTDIDECENGGFCSGVCHNLPGTFECICGPDSALVRHIGTDC
modifications: gamma-carboxyglutamic acid (Gla) in place of the Glu inserted before Asp367 (third residue of the purified polypeptide, where Edman degradation detected no amino acid; Gla confirmed by amino acid analysis)
For B2, the amount of activated protein C formed, 30 min after the polypeptide addition (Example 5) (% larger than with E456Glu) in test [3] and in test [4] was 80 throughout.

The values are drawn from US5574007.
